Assay results from paper PMC12661054 (2025).
Ends that are not written are not given here.

How the values were obtained:
[1] = molecular target: T1, GST-TOPBP1(BRCT0-2 1-290) WT (human, UniProt Q92547 1-290); assay: FP
T1 chain: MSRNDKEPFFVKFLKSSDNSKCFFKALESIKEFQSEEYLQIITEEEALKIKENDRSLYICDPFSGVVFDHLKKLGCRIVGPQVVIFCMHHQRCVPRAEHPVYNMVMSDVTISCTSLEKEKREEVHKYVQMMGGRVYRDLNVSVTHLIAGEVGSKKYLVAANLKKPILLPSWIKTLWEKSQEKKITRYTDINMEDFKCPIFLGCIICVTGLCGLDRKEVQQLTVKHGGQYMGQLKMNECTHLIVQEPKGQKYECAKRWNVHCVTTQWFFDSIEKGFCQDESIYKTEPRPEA

[2] = molecular target: GST-TOPBP1(BRCT0-2 1-290) K250E (human, UniProt Q92547 1-290, K250E); assay: FP

B1: Flu-SLX4_pT1260 (peptide)
peptide: fluorescein-GYGTSWLVPATPLASRSR
modifications: also: phosphothreonine at Thr1260, position in chain not mapped
- Kd [1]: 3.29 µM
- Kd [2]: 3.55 µM
